Measurements: patent publication US20140220040A1

Biological target: Human LRP6-Fc (R&D Systems), recombinant human LRP6 containing the complete extracellular domain (human) (UniProt O75581)
Assay: SPR (BIAcore), mAb captured on anti-mouse chip, Fc-antigen injected, 1:1 model

Human LRP6-Fc (R&D Systems), recombinant human LRP6 containing the complete extracellular domain (human), sequence (O75581 20-1370 V1062I): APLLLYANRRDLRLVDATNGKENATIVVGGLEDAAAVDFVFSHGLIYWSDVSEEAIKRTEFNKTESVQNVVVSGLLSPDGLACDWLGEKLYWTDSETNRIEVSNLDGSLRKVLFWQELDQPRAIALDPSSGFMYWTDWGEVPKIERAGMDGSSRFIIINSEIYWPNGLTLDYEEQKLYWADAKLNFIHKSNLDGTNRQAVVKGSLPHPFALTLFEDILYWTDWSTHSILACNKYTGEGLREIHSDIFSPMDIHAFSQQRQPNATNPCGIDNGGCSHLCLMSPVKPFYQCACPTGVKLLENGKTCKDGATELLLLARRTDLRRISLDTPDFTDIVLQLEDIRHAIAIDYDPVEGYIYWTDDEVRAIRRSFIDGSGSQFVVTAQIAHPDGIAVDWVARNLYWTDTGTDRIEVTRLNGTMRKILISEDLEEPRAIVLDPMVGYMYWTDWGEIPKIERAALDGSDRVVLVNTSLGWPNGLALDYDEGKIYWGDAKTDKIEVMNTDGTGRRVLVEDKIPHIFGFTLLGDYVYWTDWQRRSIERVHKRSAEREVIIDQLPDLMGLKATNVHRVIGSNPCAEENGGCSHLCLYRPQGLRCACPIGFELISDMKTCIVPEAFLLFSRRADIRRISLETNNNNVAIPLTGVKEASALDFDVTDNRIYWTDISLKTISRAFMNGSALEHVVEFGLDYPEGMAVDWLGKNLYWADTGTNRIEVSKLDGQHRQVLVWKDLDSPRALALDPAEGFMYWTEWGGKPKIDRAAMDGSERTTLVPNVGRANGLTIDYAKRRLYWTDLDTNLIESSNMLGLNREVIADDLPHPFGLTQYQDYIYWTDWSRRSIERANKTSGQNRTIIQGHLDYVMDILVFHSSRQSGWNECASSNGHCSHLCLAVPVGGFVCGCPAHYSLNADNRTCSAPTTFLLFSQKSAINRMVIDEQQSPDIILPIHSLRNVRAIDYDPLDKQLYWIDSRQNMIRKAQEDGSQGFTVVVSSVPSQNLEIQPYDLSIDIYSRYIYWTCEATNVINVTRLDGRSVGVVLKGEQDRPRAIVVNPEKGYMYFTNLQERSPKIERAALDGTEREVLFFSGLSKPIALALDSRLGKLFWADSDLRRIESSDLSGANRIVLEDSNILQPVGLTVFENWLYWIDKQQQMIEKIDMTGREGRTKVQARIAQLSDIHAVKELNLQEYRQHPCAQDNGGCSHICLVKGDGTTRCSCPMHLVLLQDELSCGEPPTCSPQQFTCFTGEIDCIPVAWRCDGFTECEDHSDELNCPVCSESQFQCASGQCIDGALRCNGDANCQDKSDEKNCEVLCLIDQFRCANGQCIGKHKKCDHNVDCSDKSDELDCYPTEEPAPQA

Row | Binder | Kd [nM] | koff [s⁻¹] | kon [M⁻¹ s⁻¹]
1 | anti-LRP6 monoclonal antibody 993.9 (antibody, part only; not given: light chain, not determined, V domains shown, part only) VH: DVQVQESGPGLVKPSQSLSLTCSVTGYSITSGYYWNWIRQFPGNKLEWMGYISYDGRNNYNPSLKNRISITRDTSKNQFFLKLNSVTTEDTATYYCARENSNYPYYYDYWGQGTTLTVSSAKT | 2.05 | 5.7e-05 | 28000
2 | anti-LRP6 monoclonal antibody 995.5 (antibody, part only; not given: light chain, not determined, V domains shown, part only) VH: RMKVLSLLYLLTAIPGILSDVQVQESGPGLVKPSQSLSLTCSVTGYSITSGYYWNWIRQFPGNKLEWMGYISYDGRNNYNPSLKNRISITRDTSKNQFFLKLNSVTTEDTATYYCARENSNYPYYYDYWGQGTTLTVSSAKT | 1.09 | 4.51e-05 | 41400
